“And” between values parts separate entries of the source, which are not always exact repeats. Equal values may be shown once. Bounds are passed on as bounds.

Assay [1] has as its target T1, マウスMMP9 (mouse, UniProt P41245 20-730, limits assumed).
T1 construct: The immunogen for AB0046 was a pro/catalytic domain fragment of mouse MMP9; also called mouse MMP9
The assay is described as follows: ELISA. Background: An ELISA detects its analyte on a solid surface through an enzyme-linked reagent.

Assay [2] deals with T1, マウスMMP9. Briefly: cell-based or functional assay.
The target of assay [3] is T1, マウスMMP9. Briefly: binding test (Table 2, not shown).
For assay [4], the target named is T2, ヒトMMP9 (human, UniProt P14780 20-707, limits assumed).
T2 construct: also called human MMP9; ゼラチナーゼ−B
The assay is described as follows: SPR.

Another assay addresses T3, ラットMMP9 (rat, UniProt P50282 20-708, limits assumed).
T3 construct: also called rat MMP9; 組換えラットMMP9
The assay is described as follows: ELISA.

The target in a further assay is T4, カニクイザルMMP9 (cynomolgus monkey, UniProt A0A2K5UU71 20-706).
T4 construct: also called cynomolgus MMP9; 組換えカニクイザルMMP9
Briefly: ELISA.

Assay [5] addresses T2, ヒトMMP9. Briefly: cell-based or functional assay.
Assay [6] addresses T2, ヒトMMP9. Briefly: ELISA.
In assay [7] the target is T2, ヒトMMP9. The assay is described as follows: direct binding assay and SPR.

T2 sequence (P14780 20-707 Q279R/R574P limits assumed): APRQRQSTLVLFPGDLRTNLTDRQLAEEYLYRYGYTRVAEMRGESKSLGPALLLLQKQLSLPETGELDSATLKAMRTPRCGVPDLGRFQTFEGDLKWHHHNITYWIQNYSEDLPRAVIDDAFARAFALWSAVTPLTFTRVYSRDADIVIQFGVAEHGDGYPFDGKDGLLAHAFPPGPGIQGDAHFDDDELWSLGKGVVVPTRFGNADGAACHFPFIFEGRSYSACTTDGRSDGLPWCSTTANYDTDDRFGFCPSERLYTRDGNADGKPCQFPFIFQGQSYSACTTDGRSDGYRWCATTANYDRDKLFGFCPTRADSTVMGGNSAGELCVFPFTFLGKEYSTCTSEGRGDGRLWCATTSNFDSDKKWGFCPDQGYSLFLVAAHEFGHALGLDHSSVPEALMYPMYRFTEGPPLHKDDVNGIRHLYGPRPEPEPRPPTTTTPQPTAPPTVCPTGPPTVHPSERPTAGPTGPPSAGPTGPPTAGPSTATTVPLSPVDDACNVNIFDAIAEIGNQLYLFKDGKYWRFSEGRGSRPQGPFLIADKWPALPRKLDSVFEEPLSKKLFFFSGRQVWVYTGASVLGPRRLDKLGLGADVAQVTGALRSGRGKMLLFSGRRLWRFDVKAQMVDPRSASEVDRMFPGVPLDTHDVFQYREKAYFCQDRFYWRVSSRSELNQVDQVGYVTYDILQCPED
T1 sequence (P41245 20-730 limits assumed): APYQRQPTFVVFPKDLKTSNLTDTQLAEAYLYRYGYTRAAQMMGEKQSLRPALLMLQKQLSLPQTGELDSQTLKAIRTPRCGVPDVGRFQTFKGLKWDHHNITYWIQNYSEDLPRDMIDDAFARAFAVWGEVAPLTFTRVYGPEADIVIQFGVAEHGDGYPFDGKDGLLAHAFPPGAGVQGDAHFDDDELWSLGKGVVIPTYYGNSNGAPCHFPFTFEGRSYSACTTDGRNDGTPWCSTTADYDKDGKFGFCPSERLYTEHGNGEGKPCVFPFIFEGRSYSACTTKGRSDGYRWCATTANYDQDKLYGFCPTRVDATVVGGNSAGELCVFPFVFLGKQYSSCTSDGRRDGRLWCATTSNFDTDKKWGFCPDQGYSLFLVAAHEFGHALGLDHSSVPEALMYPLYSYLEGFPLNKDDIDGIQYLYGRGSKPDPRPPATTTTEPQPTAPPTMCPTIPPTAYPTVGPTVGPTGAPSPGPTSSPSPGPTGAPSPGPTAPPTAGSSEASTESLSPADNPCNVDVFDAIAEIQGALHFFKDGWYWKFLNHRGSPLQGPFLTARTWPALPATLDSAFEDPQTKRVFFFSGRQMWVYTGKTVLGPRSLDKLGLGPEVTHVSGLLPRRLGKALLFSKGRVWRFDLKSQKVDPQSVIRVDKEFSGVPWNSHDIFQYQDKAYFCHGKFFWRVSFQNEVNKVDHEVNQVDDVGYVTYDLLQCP
T3 sequence (P50282 20-708 limits assumed): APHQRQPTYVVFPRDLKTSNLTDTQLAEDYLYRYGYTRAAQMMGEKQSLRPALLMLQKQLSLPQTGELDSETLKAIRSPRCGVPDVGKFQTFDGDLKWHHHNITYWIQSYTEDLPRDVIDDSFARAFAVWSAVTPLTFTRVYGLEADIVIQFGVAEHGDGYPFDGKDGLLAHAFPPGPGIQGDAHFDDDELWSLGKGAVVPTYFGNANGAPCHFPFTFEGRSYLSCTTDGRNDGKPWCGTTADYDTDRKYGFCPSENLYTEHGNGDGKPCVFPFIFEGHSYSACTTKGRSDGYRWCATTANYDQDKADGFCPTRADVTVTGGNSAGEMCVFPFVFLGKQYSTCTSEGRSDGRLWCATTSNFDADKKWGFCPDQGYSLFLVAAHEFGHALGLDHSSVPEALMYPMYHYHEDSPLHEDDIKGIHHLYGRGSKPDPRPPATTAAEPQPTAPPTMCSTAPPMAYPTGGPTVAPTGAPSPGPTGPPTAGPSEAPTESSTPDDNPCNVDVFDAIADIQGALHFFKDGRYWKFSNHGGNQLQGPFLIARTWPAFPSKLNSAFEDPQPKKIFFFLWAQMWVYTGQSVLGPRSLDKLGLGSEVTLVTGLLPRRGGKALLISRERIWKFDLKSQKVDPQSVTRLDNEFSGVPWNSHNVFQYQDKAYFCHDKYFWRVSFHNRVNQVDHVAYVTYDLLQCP
T4 sequence (A0A2K5UU71 entry or part of it): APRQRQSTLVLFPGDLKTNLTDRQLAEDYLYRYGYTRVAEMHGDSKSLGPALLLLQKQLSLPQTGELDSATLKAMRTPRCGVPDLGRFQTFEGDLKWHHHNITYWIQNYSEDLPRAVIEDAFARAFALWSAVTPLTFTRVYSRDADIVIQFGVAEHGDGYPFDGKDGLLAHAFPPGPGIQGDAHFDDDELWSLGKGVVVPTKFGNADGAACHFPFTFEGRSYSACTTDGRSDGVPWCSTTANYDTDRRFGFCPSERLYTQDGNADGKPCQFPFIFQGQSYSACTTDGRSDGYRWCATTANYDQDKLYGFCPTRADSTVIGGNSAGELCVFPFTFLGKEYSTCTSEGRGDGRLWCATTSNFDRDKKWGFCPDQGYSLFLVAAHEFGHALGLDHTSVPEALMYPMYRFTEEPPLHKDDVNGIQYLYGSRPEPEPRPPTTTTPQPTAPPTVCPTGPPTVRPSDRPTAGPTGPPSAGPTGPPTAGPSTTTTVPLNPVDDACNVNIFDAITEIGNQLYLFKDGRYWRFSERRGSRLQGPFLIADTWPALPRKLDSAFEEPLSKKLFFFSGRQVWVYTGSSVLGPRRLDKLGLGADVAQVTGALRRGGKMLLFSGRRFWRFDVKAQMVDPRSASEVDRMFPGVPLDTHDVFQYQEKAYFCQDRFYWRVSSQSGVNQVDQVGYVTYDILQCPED

B1: マウス抗体AB0046 (antibody, V domains shown)
VH: QVQLQQPGSVLVRPGASVKLSCTASGYTFTSYWMNWVKQRPGQGLEWIGEIYPISGRTNYNEKFKVKATLTVDTSSSTAYMDLNSLTSEDSAVYYCARSRANWDDYWGQGTTLTVSS
VL: DIQMTQTTSSLSASLGDRVTISCSASQGISNYLNWYQQKPDGTFKLLIYYTSILHSGVPSRFSGSGSGTDYSLTISNLEPEDIATYYCQQYGWLPRTFGGGTKLEIKR
notes: Mouse IgG1/kappa anti-mouse MMP9 antibody; also called AB0046; AB0046抗体
What is called Kd is a measure of binding affinity in units of concentration. Low readings indicate higher affinity, high ones lower affinity. In the case of B1, binding with マウスMMP9 [1] was characterised by a dissociation constant (Kd) of 218 pM. Also, the “IC50, MMP9-mediated cleavage of fluorogenic peptide substrate Mca-PLGL-Dpa-AR-NH2” value (“IC50, MMP9-mediated cleavage” below) with マウスMMP9 [2] came out at 0.352 nM.

B2: マウスモノクローナル抗MMP9抗体(AB0041) (antibody, mouse IgG2b, V domains shown)
VH: QVQLKESGPGLVAPSQSLSITCTVSGFSLLSYGVHWVRQPPGKGLEWLGVIWTGGTTNYNSALMSRLSISKDDSKSQVFLKMNSLQTDDTAIYYCARYYYGMDYWGQGTSVTVSS
VL: DIVMTQSHKFMSTSVGDRVSITCKASQDVRNTVAWYQQKTGQSPKLLIYSSSYRNTGVPDRFTGSGSGTDFTFTISSVQAEDLAVYFCQQHYITPYTFGGGTKLEIK
notes: also called AB0041; AB0041抗体
B2: in the assay with マウスMMP9 [3], the binding result was “no binding”. Moreover, the Kd is 0.4 pM in the assay with ヒトMMP9 [4], < 400 pM with ラットMMP9 and < 400 pM with カニクイザルMMP9. Moreover, the “IC50, MMP9-mediated cleavage” value with ヒトMMP9 [5] came to 0.569 nM.

B3: ヒト化変異体抗MMP9抗体AB0045(ヒト化、改変IgG4(S241P)) (antibody, V domains shown)
VH: QVQLQESGPGLVKPSETLSLTCTVSGFSLLSYGVHWVRQPPGKGLEWLGVIWTGGTTNYNSALMSRFTISKDDSKNTVYLKMNSLKTEDTAIYYCARYYYGMDYWGQGTLVTVSS
VL: DIQMTQSPSSLSASVGDRVTITCKASQDVRNTVAWYQQKPGKAPKLLIYSSSYRNTGVPDRFSGSGSGTDFTLTISSLQAEDVAVYYCQQHYITPYTFGGGTKVEIKR
notes: also called AB0045; AB0045抗体
As for B3, the dissociation constant (Kd) in the assay with ヒトMMP9 [4] is 8.8 pM; with ラットMMP9 it was < 400 pM; in the assay with カニクイザルMMP9 it was < 400 pM; with ヒトMMP9 [6] it was < 400 pM and 168 pM; in the assay with ヒトMMP9 [7], ~1 pM. Besides, the “IC50, MMP9-mediated cleavage” value with ヒトMMP9 [5] is 0.691 nM.

The values above are taken from patent JP2016106147A (dated 2016).
